{
  "source": "paper PMC6760453",
  "about": "“Conformational characterization of full-length X-chromosome-linked inhibitor of apoptosis protein (XIAP) through an integrated approach” (IUCrJ, 2019)",
  "proteins": {"B1": {"name": "XIAP C202R1 (XIAP C12A, C213G, C351S labelled with MTSL nitroxide on Cys202) (natural protein, human, UniProt P98170 1-497, looked up)", "chain": "MTFNSFEGSKTAVPADINKEEEFVEEFNRLKTFANFPSGSPVSASTLARAGFLYTGEGDTVRCFSCHAAVDRWQYGDSAVGRHRKVSPNCRFINGFYLENSATQSTNSGIQNGQYKVENYLGSRDHFALDRPSETHADYLLRTGQVVDISDTIYPRNPAMYSEEARLKSFQNWPDYAHLTPRELASAGLYYTGIGDQVQCFCCGGKLKNWEPGDRAWSEHRRHFPNCFFVLGRNLNIRSESDAVSSDRNFPNSTNLPRNPSMADYEARIFTFGTWIYSVNKEQLARAGFYALGEGDKVKCFHCGGGLTDWKPSEDPWEQHAKWYPGCKYLLEQKGQEYINNIHLTHSLEESLVRTTEKTPSLTRRIDDTIFQNPMVQEAIRMGFSFKDIKKIMEEKIQISGSNYKSLEVLVADLVNAQKDSMQDESSQTSLQKEISTEEQLRRLQEEKLCKICMDRNIAIVFVPCGHLVTCKQCAEAVDKCPMCYTVITFKQKIFMS", "modifications": "MTSL nitroxide spin label on Cys202", "notes": "Mutations were introduced into the WT XIAP gene; also called XIAP C202-MTSL"}},
  "biological_target": "the molecule itself",
  "assay": "EPR-DEER; Q-band (34 GHz) four-pulse DEER at 50 K on MTSL-labelled XIAP; dimer concentration 15 uM; 20 mM Tris pH 7.4",
  "data": [
    {"protein": "B1", "values": [
      {"measurement": "binding result", "value": "binds"}
    ]}
  ]
}
